Results on 29 molecules are retold here after patent US20090280138A1 (OXFORD BIOMEDICA UK, published 2009).

Common to all, as to assay: iTopia peptide binding assay
Assay [1] addresses T1, MHC class I allele A*0201 (bound via biotin to streptavidin-coated plate).
T1 construct: iTopia MHC class I monomer on the plate; placeholder peptide and b2M removed, then reconstituted with test peptide and fresh b2M; also called A2; HLA A2
On the procedure:
(§1) The 9 mers were tested for Peptide Binding, Off Rate and Affinity using iTopia Epitope Discovery System in accordance with the manufacturer's instructions. Briefly, 96 well microtitre plates coated with MHC molecules representing different MHC alleles are used to identify candidate peptides. […] Determinations are performed in duplicate using an ELISA plate reader and included allele specific positive controls.
(§2) i) Peptide Binding—This assay measures the ability of individual peptides to bind to the MHC molecules under standardized optimal binding conditions. The assay is performed for all the test peptides across the selected MHC alleles. The test peptides identified as “binders” are characterized further in terms of affinity and dissociation experiments.

The target of assay [2] is T2, MHC class I allele A*0101 (bound via biotin to streptavidin-coated plate).
T2 construct: iTopia MHC class I monomer on the plate; placeholder peptide and b2M removed, then reconstituted with test peptide and fresh b2M; also called A1; HLA A1
On the procedure:
as §1, §2

In assay [3] the target is T3, MHC class I allele A*0301 (bound via biotin to streptavidin-coated plate).
T3 construct: iTopia MHC class I monomer on the plate; placeholder peptide and b2M removed, then reconstituted with test peptide and fresh b2M; also called A3; HLA A3
As to the method:
as §1, §2

The target of assay [4] is T4, MHC class I allele B*0702 (bound via biotin to streptavidin-coated plate).
T4 construct: iTopia MHC class I monomer on the plate; placeholder peptide and b2M removed, then reconstituted with test peptide and fresh b2M; also called B7; HLA B7
On the procedure: as §1, §2

B1: 5T4 9 mer peptide 45 LPAYVRNLF (peptide)
peptide: LPAYVRNLF
notes: also called Peptide No 45
As for B1, the “% of positive control peptide binding” value in assay [1] stood at 14%; in assay [2] it was 7%; in assay [3], 2%; in assay [4] it was 90%.

B2: 5T4 9 mer peptide 35 SEAARTVKC (peptide)
peptide: SEAARTVKC
notes: also called Peptide No 35
Take B2: the “% of positive control peptide binding” value in assay [1] stood at 1%; in assay [2], 5%; in assay [3], 0%; in assay [4], 0%.

B3: 5T4 9 mer peptide 66 DEVRAGAFE (peptide)
peptide: DEVRAGAFE
notes: also called Peptide No 66
B3: the “% of positive control peptide binding” value in assay [1] came out at 9%; in assay [2] it was 6%; in assay [3], 7%; in assay [4], 12%.

B4: 5T4 9 mer peptide 47 VRNLFLTGN (peptide)
peptide: VRNLFLTGN
notes: also called Peptide No 47
In the case of B4, the “% of positive control peptide binding” value in assay [1] amounted to 5%; in assay [2] it was 0%; in assay [3], 0%; in assay [4] it was 3%.

B5: 5T4 9 mer peptide 5 PAAGDGRLR (peptide)
peptide: PAAGDGRLR
notes: also called Peptide No 5
Regarding B5, the “% of positive control peptide binding” value in assay [1] was found to be 5%; in assay [2], 4%; in assay [3] it was 4%; in assay [4] it was 5%.

B6: 5T4 9 mer peptide 73 RQLDLSHNP (peptide)
peptide: RQLDLSHNP
notes: also called Peptide No 73
As to B6, the “% of positive control peptide binding” value in assay [1] was 8%; in assay [2] it was 2%; in assay [3], 2%; in assay [4], 4%.

B7: 5T4 9 mer peptide 42 TEVPTDLPA (peptide)
peptide: TEVPTDLPA
notes: also called Peptide No 42
For B7, the “% of positive control peptide binding” value in assay [1] is 7%; in assay [2] it was 3%; in assay [3] it was 0%; in assay [4] it was 0%.

B8: 5T4 9 mer peptide 55 GAFARRPPL (peptide)
peptide: GAFARRPPL
notes: also called Peptide No 55
As for B8, the “% of positive control peptide binding” value in assay [1] came out at 41%; in assay [2], 0%; in assay [3], 3%; in assay [4], 91%.

B9: 5T4 9 mer peptide 34 ECSEAARTV (peptide)
peptide: ECSEAARTV
notes: also called Peptide No 34
As to B9, the “% of positive control peptide binding” value in assay [1] is 4%; in assay [2], 2%; in assay [3], 0%; in assay [4], 0%.

B10: 5T4 9 mer peptide 38 VKCVNRNLT (peptide)
peptide: VKCVNRNLT
notes: also called Peptide No 38
Turning to B10, the “% of positive control peptide binding” value in assay [1] was determined as 3%; in assay [2] it was 6%; in assay [3], 0%; in assay [4], 2%.

B11: 5T4 9 mer peptide 58 PPLAELAAL (peptide)
peptide: PPLAELAAL
notes: also called Peptide No 58
As to B11, the “% of positive control peptide binding” value in assay [1] came to 19%; in assay [2] it was 6%; in assay [3], 4%; in assay [4] it was 33%.

B12: 5T4 9 mer peptide 33 LCECSEAAR (peptide)
peptide: LCECSEAAR
notes: also called Peptide No 33
In the case of B12, the “% of positive control peptide binding” value in assay [1] was found to be 6%; in assay [2] it was 3%; in assay [3] it was 0%; in assay [4], 0%.

B13: 5T4 9 mer peptide 69 AFEHLPSLR (peptide)
peptide: AFEHLPSLR
notes: also called Peptide No 69
As for B13, the “% of positive control peptide binding” value in assay [1] is 11%; in assay [2], 1%; in assay [3], 11%; in assay [4] it was 0%.

B14: 5T4 9 mer peptide 57 RRPPLAELA (peptide)
peptide: RRPPLAELA
notes: also called Peptide No 57
Consider B14, for which the “% of positive control peptide binding” value came out at 11% in assay [1], 2% in assay [2], 2% in assay [3] and 9% in assay [4].

B15: 5T4 9 mer peptide 43 VPTDLPAYV (peptide)
peptide: VPTDLPAYV
notes: also called Peptide No 43
With B15, the “% of positive control peptide binding” value in assay [1] was 29%; in assay [2] it was 33%; in assay [3] it was 0%; in assay [4] it was 11%.

B16: 5T4 9 mer peptide 49 FLTGNQLAV (peptide)
peptide: FLTGNQLAV
notes: also called Peptide No 49
As for B16, the “% of positive control peptide binding” value is 90% in assay [1], 4% in assay [2], 3% in assay [3] and 6% in assay [4].

B17: 5T4 9 mer peptide 54 PAGAFARRP (peptide)
peptide: PAGAFARRP
notes: also called Peptide No 54
Regarding B17, the “% of positive control peptide binding” value turned out to be 4% in assay [1], 2% in assay [2], 3% in assay [3] and 7% in assay [4].

B18: 5T4 9 mer peptide 61 AALNLSGSR (peptide)
peptide: AALNLSGSR
notes: also called Peptide No 61
As for B18, the “% of positive control peptide binding” value is 6% in assay [1], 3% in assay [2], 13% in assay [3] and 3% in assay [4].

B19: 5T4 9 mer peptide 65 RLDEVRAGA (peptide)
peptide: RLDEVRAGA
notes: also called Peptide No 65
B19: the “% of positive control peptide binding” value is 69% in assay [1], 4% in assay [2], 17% in assay [3] and 32% in assay [4].

B20: 5T4 9 mer peptide 59 LAELAALNL (peptide)
peptide: LAELAALNL
notes: also called Peptide No 59
Take B20: the “% of positive control peptide binding” value stood at 63% in assay [1], 15% in assay [2], 3% in assay [3] and 16% in assay [4].

B21: 5T4 9 mer peptide 40 NRNLTEVPT (peptide)
peptide: NRNLTEVPT
notes: also called Peptide No 40
As for B21, the “% of positive control peptide binding” value was 6% in assay [1], 1% in assay [2], 0% in assay [3] and 5% in assay [4].

B22: 5T4 9 mer peptide 68 AGAFEHLPS (peptide)
peptide: AGAFEHLPS
notes: also called Peptide No 68
On to B22, for which the “% of positive control peptide binding” value in assay [1] turned out to be 10%; in assay [2], 6%; in assay [3], 3%; in assay [4], 7%.

B23: 5T4 9 mer peptide 3 CSRGPAAGD (peptide)
peptide: CSRGPAAGD
notes: also called Peptide No 3
Take B23: the “% of positive control peptide binding” value in assay [1] came to 3%; in assay [2] it was 0%; in assay [3], 5%; in assay [4], 3%.

B24: 5T4 9 mer peptide 62 LNLSGSRLD (peptide)
peptide: LNLSGSRLD
notes: also called Peptide No 62
On to B24, for which the “% of positive control peptide binding” value in assay [1] is 7%; in assay [2], 2%; in assay [3], 2%; in assay [4], 7%.

B25: 5T4 9 mer peptide 72 SLRQLDLSH (peptide)
peptide: SLRQLDLSH
notes: also called Peptide No 72
In the case of B25, the “% of positive control peptide binding” value was found to be 6% in assay [1], 0% in assay [2], 11% in assay [3] and 13% in assay [4].

B26: 5T4 9 mer peptide 71 LPSLRQLDL (peptide)
peptide: LPSLRQLDL
notes: also called Peptide No 71
For B26, the “% of positive control peptide binding” value in assay [1] came out at 27%; in assay [2], 0%; in assay [3], 0%; in assay [4] it was 82%.

B27: 5T4 9 mer peptide 117 LPSLRHLDL (peptide)
peptide: LPSLRHLDL
notes: also called Peptide No 117
For B27, the “% of positive control peptide binding” value in assay [1] stood at 16%; in assay [2], 0%; in assay [3], 1%; in assay [4], 96%.

B28: 5T4 9 mer peptide 37 RTVKCVNRN (peptide)
peptide: RTVKCVNRN
notes: also called Peptide No 37
As for B28, the “% of positive control peptide binding” value in assay [1] turned out to be 12%; in assay [2], 7%; in assay [3] it was 12%; in assay [4] it was 3%.

B29: 5T4 9 mer peptide 44 TDLPAYVRN (peptide)
peptide: TDLPAYVRN
notes: also called Peptide No 44
For the molecule B29, the “% of positive control peptide binding” value turned out to be 3% in assay [1], 7% in assay [2], 1% in assay [3] and 2% in assay [4].
